Source: patent US20250179192A1 (PHARMABCINE, published 2025)

Experiments:
[1] = target: T1, hDLL4 expressed on HEK293 cells (human, UniProt Q9NR61 27-685); assay: FACS on hDLL4-overexpressing HEK293 cells (293-DLL4), 5 nM, anti-human IgG-PE secondary; secondary only 82.0
T1 construct: whole, on cells; also called DLL4-overexpressed HEK293 cells
Method: Specifically, the pcDNA-hDLL4 vector synthesized by GeneArt was transfected into HEK293 cells using Lipofectamin™ 2000 (Invitrogen #1168-019, USA), and neomycin (Gibco #10131, 50 mg/ml) was added for selection. Then, all grown cells were collected and cultured in a pool state. Then, 23 types of single colonies were obtained by culture using a limiting dilution method, and among the single colonies, one type of cell line that highly overexpressed hDLL4 was selected and tested. The selected cells were prepared to a concentration of 2×10⁷ cells/ml in FACS buffer (0.5% FBS, 0.05% sodium azide in PBS) and dispensed at 50 μl into each of FACS tubes. 5 nM fusion protein and control antibodies (6A6, 6A6×DLL4, D4, D4×DLL4, Minod-Fc) were added in 100 μl to each of the FACS tubes containing the cells, followed by reaction at 4° C. for 30 minutes. After completion of reaction, 2 ml of FACS buffer was added to each tube, followed by centrifugation at 1500 rpm for 3 minutes. The supernatant was removed, the cells were well resuspended, and then 100 μl of anti-human IgG-PE antibody (1:200, […], #A80-248PE) was added, followed by reaction at 4° C. for 20 minutes. After completion of reaction, 2 ml of FACS buffer was added to each FACS tube, followed by centrifugation at 1500 rpm for 3 minutes. The separated supernatant was removed, the cells were resuspended in 200 μl of FACS buffer, and the binding activity was analyzed using FACS (Beckton Dickinson, Lyric).

[2] = target: T2, VEGFR2 (KDR) on HUVECs (human, UniProt P35968 20-1356); assay: FACS on HUVECs, 5 nM, anti-human IgG-PE secondary; secondary only 65.7
T2 construct: Endogenous receptor on HUVECs; also called KDR (VEGFR-2)
T2 sequence (P35968 20-1356 limits assumed): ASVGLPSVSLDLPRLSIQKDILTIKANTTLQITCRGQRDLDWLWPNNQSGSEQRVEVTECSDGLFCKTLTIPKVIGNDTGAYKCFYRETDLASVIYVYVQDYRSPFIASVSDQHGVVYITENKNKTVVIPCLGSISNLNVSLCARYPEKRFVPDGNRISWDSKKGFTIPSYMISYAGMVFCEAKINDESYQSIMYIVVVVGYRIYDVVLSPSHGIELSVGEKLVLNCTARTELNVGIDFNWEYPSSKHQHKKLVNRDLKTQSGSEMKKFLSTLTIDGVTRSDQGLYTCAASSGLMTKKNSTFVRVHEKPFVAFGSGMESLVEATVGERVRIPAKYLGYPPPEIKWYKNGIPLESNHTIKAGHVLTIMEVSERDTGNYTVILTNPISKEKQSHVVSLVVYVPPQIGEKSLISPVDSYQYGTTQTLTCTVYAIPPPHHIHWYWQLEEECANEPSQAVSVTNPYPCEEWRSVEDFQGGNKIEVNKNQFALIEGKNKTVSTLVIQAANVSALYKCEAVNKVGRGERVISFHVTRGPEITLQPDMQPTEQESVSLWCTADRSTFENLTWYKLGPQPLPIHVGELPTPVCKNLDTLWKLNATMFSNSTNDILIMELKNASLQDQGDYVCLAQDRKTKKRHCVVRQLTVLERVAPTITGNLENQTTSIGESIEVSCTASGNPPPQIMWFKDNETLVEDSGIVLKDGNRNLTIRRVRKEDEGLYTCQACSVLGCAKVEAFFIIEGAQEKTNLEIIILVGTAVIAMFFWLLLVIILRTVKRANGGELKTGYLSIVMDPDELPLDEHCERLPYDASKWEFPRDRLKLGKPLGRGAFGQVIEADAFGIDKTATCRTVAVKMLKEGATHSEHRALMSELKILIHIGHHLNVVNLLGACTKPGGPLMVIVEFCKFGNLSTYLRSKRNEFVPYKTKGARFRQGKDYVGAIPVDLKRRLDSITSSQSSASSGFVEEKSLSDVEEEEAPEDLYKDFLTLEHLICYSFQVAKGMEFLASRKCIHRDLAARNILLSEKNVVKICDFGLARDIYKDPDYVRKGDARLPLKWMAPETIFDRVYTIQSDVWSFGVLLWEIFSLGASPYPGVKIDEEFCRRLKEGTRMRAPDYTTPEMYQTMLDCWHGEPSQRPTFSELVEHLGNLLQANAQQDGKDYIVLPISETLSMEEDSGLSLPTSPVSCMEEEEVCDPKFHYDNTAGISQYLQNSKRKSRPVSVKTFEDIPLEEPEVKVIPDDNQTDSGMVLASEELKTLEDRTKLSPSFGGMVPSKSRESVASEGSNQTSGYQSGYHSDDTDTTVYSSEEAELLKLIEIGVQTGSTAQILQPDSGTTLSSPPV
Method: To determine the binding activity of the fusion protein to HUVECs, FACS analysis was performed using the fusion protein and control antibodies (6A6, 6A6×DLL4, D4, Minod-Fc).
Specifically, HUVECs (LONZA, Cat No. C2519A) were cultured at 37° C. and 5% CO₂ using a plate coated with 2% gelatin and VascuLife medium complete kit (Lifeline Cell Technology, Cat No. #LCT-LL-0005). The cells were prepared at a concentration of 2×10⁷ cells/ml in FACS buffer (0.5% FBS, 0.05% sodium azide in PBS) and dispensed at 50 μl into each of FACS tubes. 100 μl of each antibody at a concentration of 5 nM was mixed in the FACS tube, followed by reaction at 4° C. for 30 minutes. After completion of reaction, 2 ml of FACS buffer was added to each tube, followed by centrifugation at 1500 rpm for 3 minutes. The supernatant was removed, the cells were resuspended, and 100 μl of anti-human IgG-PE antibody (1:200, Bethyl, #A80-248PE) was added, followed by reaction at 4° C. for 20 minutes. 2 ml of FACS buffer was added to each FACS tube, followed by centrifugation at 1500 rpm for 3 minutes. The separated supernatant was removed, the cells were resuspended in 200 μl of FACS buffer, and the binding activity was analyzed using FACS (Beckton Dickinson, Lyric).

[3] = target: T3, KDR1-3 domains (UniProt P35968 20-327, limits assumed); assay: Octet BLI, KDR1-3 domains on biosensor, scFv in solution
T3 construct: domain: KDR1-3 domains; Immobilized on the Octet biosensor; also called KDR D1-D3; KDR1-3 domain-Fc (as used for panning)
T3 sequence (P35968 20-327 limits assumed): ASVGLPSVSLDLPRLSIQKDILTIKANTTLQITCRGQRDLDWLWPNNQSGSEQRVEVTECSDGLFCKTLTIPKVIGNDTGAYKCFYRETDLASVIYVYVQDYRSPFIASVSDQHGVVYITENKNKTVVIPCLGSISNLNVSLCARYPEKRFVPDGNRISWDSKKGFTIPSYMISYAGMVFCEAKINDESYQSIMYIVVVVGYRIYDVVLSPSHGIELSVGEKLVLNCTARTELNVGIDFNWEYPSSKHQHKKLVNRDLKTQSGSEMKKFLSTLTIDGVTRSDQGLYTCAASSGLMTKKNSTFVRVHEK
Method: The binding ability of the selected antibodies to the antigen was measured using Octet (Fortebio). To this end, KDR1-3 domains were immobilized on a biosensor, candidate antibodies expressed in scFv form were added and bound, and the dissociation rate constant was measured. The results of measurement of dissociation rate constant for the five selected optimized clones [Table 1] and amino acid sequences [Tables 2 and 3] are shown below.

[4] = target: T4, hKDR-ECD (human, UniProt P35968 20-764); assay: SPR Biacore T200, fusion protein captured on Protein A chip, antigen as analyte, 1:1 model
T4 construct: extracellular domain; Analyte in SPR; also called human KDR (VEGFR-2) extracellular domain
T4 sequence (P35968 20-764): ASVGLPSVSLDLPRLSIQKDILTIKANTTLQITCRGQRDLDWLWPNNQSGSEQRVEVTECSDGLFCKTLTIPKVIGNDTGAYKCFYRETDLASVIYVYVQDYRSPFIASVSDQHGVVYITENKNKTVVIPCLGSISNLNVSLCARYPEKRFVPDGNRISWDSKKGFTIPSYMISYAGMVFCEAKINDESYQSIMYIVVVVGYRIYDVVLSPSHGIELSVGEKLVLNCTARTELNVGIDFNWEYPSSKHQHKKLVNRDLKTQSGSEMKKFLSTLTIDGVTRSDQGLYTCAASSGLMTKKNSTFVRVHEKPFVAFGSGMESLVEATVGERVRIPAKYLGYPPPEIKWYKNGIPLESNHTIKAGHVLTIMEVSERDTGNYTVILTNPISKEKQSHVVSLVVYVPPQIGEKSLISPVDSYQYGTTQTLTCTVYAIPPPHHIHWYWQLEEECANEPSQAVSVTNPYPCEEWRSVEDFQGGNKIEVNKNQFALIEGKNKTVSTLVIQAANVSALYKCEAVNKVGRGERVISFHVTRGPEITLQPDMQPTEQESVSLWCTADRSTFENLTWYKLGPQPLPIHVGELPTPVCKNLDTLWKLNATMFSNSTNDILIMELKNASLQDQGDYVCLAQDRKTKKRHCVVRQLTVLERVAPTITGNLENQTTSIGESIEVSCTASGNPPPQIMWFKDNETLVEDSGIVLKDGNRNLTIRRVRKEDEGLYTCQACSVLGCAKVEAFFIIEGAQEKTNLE
Method: (§1) The binding ability of the selected fusion protein to the antigen was measured using SPR (Biacore T200, Cytiva). The fusion protein was captured and analyzed using the antigen protein as an analyte. Using a Protein A chip, the fusion protein was immobilized on the surface according to the manufacturer's instructions. The fusion protein on the sensor chip was diluted with PBS-T running buffer to a concentration of 5 μg/ml and injected at a flow rate of 10 μl/min to reach about 200 RU. The antigen was diluted with PBS-T running buffer by concentration and injected at a flow rate of 30 μl/min for 4 minutes, and the dissociation time was set to 10 minutes. To remove the fusion protein bound every cycle, a regeneration solution (10 mM glycine-HCl, pH 1.5) was injected at a flow rate of 30 μl/min for 1 minute. The experimental results were calculated using the 1:1 binding model of BIA evaluation software version 1.0.

[5] = target: T5, hDLL4 (human, UniProt Q9NR61 27-524, limits assumed); assay: as above
T5 construct: Analyte in SPR; also called human delta-like ligand 4 (soluble antigen protein)
T5 sequence (Q9NR61 27-524 limits assumed): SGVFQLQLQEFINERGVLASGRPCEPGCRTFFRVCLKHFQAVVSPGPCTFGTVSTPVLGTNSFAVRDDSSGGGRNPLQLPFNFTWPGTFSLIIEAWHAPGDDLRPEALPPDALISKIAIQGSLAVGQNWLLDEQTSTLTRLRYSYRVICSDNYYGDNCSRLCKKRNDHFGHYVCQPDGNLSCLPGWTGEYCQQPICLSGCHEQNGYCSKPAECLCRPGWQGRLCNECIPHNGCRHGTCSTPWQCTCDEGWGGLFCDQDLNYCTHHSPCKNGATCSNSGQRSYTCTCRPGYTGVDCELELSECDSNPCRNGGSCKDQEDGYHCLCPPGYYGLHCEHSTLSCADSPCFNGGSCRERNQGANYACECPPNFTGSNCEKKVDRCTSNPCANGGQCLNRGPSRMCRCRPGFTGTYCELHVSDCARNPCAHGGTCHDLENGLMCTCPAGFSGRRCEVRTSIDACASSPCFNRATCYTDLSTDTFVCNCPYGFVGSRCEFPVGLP
Method: as §1

T1 sequence (Q9NR61 27-685): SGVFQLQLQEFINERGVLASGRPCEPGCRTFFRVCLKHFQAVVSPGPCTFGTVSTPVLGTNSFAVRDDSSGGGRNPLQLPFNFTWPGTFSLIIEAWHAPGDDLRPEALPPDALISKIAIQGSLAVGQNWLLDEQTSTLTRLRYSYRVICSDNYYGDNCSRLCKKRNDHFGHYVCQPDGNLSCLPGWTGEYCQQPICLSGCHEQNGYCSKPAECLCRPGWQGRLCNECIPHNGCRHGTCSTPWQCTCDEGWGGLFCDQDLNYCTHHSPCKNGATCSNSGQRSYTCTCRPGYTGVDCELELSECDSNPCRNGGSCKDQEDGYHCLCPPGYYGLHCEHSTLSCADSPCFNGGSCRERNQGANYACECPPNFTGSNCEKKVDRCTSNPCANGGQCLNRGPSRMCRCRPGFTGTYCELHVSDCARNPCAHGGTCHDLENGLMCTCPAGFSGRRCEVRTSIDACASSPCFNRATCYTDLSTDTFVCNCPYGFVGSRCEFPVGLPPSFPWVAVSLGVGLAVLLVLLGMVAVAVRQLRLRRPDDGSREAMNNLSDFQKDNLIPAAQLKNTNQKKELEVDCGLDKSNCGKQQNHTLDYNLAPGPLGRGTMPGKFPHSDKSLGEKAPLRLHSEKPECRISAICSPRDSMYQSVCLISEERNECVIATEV

| Binder | Geometric Mean : PE-A [1] | Geometric Mean : PE-A [2] | koff [3] | further results |
| --- | --- | --- | --- | --- |
| D4 (IgG1 form) (antibody, V domains shown, also called optimized antibody D4) VH: EVQLVESGGGLVQPGGSLRLSCAASGYTFSSYWMSWVRQAPGKGLEWVSEINPGNGHTNYNEKFKSRFTISRDKSKNTLYLQMNSLRAEDTAVYYCARHWGPSLTSPFDYWGQGTLVTVSS VL: DIQMTQSPSSLSASVGDRVTITCRADNLGDVNVHWYQQKPGKAPKLLIYYDADRPSGVPSRFSGSNSGNDATLTISSLQPEDFATYYCQAPTNNDPYTFGQGTKVEIKR | 71.1 | 456 | – | – |
| D4 (scFv form) (scFv, V domains shown, Tested as scFv) VH: EVQLVESGGGLVQPGGSLRLSCAASGYTFSSYWMSWVRQAPGKGLEWVSEINPGNGHTNYNEKFKSRFTISRDKSKNTLYLQMNSLRAEDTAVYYCARHWGPSLTSPFDYWGQGTLVTVSS VL: DIQMTQSPSSLSASVGDRVTITCRADNLGDVNVHWYQQKPGKAPKLLIYYDADRPSGVPSRFSGSNSGNDATLTISSLQPEDFATYYCQAPTNNDPYTFGQGTKVEIKR | – | – | 0.000165 s⁻¹ | – |
| LH-E7 (scFv form) (scFv, V domains shown, Tested as scFv) VH: EVQLVESGGGLVQPGGSLRLSCAASGYTFSSYWMSWVRQAPGKGLEWVSEINPGNGHTNYNEKFKSRFTISRDKSKNTLYLQMNSLRAEDTAVYYCARHWGPSLTSPFDYWGQGTLVTVSS VL: DIQMTQSPSSLSASVGDRVTITCRADNLGDVNVHWYQQKPGKAPKLLIYYDADRPSGVPSRFSGSNSGNDATLTISSLQPEDFATYYCQAPTRIAPYTFGQGTKVEIKR | – | – | 0.000111 s⁻¹ | – |
| A5 (scFv form) (scFv, V domains shown, Tested as scFv) VH: EVQLVESGGGLVQPGGSLRLSCAASGYTFSSYWMSWVRQAPGKGLEWVSEINPGNGHTNYNEKFKSRFTISRDKSKNTLYLQMNSLRAEDTAVYYCARHWGPSLTSPFDYWGQGTLVTVSS VL: DIQMTQSPSSLSASVGDRVTITCRADNLGDVNVHWYQQKPGKAPKLLIYYDADRPSGVPSRFSGSNSGNDATLTISSLQPEDFATYYCQAPTTHLPYTFGQGTKVEIKR | – | – | 0.000187 s⁻¹ | – |
| LHL-G1 (scFv form) (scFv, V domains shown, Tested as scFv) VH: EVQLVESGGGLVQPGGSLRLSCAASGYTFSSYWMSWVRQAPGKGLEWVSEINPGNGHTNYNEKFKSRFTISRDKSKNTLYLQMNSLRAEDTAVYYCARSYRPSLTSPFDFWGQGTLVTVSS VL: DIQMTQSPSSLSASVGDRVTITCRADNLGDVNVHWYQQKPGKAPKLLIYYDADRPSGVPSRFSGSNSGNDATLTISSLQPEDFATYYCQAPTTNEPYTFGQGTKVEIKR | – | – | 0.000239 s⁻¹ | – |
| D3 (scFv form) (scFv, V domains shown, Tested as scFv) VH: EVQLVESGGGLVQPGGSLRLSCAASGYTFSSYWMSWVRQAPGKGLEWVSEINPGNGHTNYNEKFKSRFTISRDKSKNTLYLQMNSLRAEDTAVYYCARHWGPSLTSPFDYWGQGTLVTVSS VL: DIQMTQSPSSLSASVGDRVTITCRADNLGDVNVHWYQQKPGKAPKLLIYYDADRPSGVPSRFSGSNSGNDATLTISSLQPEDFATYYCQAPTKNVPYTFGQGTKVEIKR | – | – | 0.00015 s⁻¹ | – |
| 6A6×DLL4 (bispecific antibody, Comparative fusion protein with a 6A6 backbone; it was captured on a Protein A chip; also called 6A6xDLL4) VH: QMQLVQSGAEVKKPGASVKLSCKASGYTFSSYWMHWVRQAPGQRLEWMGEINPGNGHTNYNEKFKSRVTITVDKSASTAYMELSSLRSEDTAVYYCAKIWGPSLTSPFDYWGQGTLVTVSS Notch1-VL: not shown | 968 | 380 | – | Kd [4]: 4.46 nM; Pmax [4]: 502; koff [4]: 0.000837 s⁻¹; kon [4]: 188000 M⁻¹ s⁻¹; Pmax [5]: 74.9; kon [5]: 45800 M⁻¹ s⁻¹ |
| 6A6 (control antibody) (antibody, V domains shown) VH: QMQLVQSGAEVKKPGASVKLSCKASGYTFSSYWMHWVRQAPGQRLEWMGEINPGNGHTNYNEKFKSRVTITVDKSASTAYMELSSLRSEDTAVYYCAKIWGPSLTSPFDYWGQGTLVTVSS VL: SNFMLTQPPSVSVSPGKTARITCRGDNLGDVNVHWYQQRPGQAPVLVMYYDADRPSGIPERFSGSNSGNTATLTISGVEAGDEADYYCQVWDRTSEYVFGTGTKVTVLG | 84.6 | 352 | – | – |
